Among the data in a protein production outcome set (Wang et al. 2014) are protein production values, retold here.
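Further: failed if final PepcDB status was selected cloned or expressed and not failed if soluble or beyond.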

The nature of this data set: label from the status in PepcDB records.
As for “MVWGTFLKNKKPYSIKRQLTLSVGLLVSALLLISLYFSFQSAKHEVEEVYDARLGQSAKLMLLTLSISTETDTLANHRELFDQWMKNIDSLAKSDEDKATKFGHPYEQNLVFQFYRDNKLIWSSTPNLRSLSSSFYNNGYADITKDGVQWRTFQLSLPQTEHENEYVVVAEKQKIRKEIIHEIALSTSIEQLLLLPTLLLLLFWLIDRYFRPINDLRTAITQRNVHRLDRIHVTDNTTELAPLVEALNSLLSELEQAWQREKRFTRAAAHELKTPLTILRLNVENALESNDPEQLRGDLHNILQGIERTDRLIHQLLTLAKVDSLSERVFDNVELTPLLQTVVADLAPLALRQDQDISLSPAEVALSGDKMLLEVLFRNLVDNAIRYSGAHSEIQVSVQENRNAIKILISDTGPEIPQETRERIFEQFYRGHSEKGDGAGLGMSICKDIATLHSAIIELIPRENGKNTFVVAFPKH”, the protein production result is listed as “failed”.

For “MWAHCSAIARTMVYPSFFCSGDWLKVAAENLCPGDEAYILLAKDADDIRGVLPLVRKRNALGGTDLHYLGSDFYPDPLGLICSPADRADCAAALRNHLLNAPDWDRLILDFLLEDEPADWTLPGKPVSVAPFKVLPRDFSELLGEFKKKKRYNLRAMVKKLLDAGGELAASSGPESNIAYLDALFFLHEKRASERSLDSSFTGPRVQSLHRALVAASDNVRFFGLRLNGQMIAVIYGFEFCNRFFYYQVAHDPDHGHLSPGTVLLYLVIEACCVNGLTEFNFLQGDETYKGIWTNDSRILYRCVLNRSTWRSRVFSAVEESRGYVKRAMGLMSRGN”, the protein production entry is listed as “failed”.

As to “MWCGRNAPPRRIRRHTASKSASTAAKGGVRRACPGIVSITRPFDRTRYGSQIPPMPAISIIARTRRKDDHGRVPIRLRISHRGEKRFIALPVKVLAKKWNGDKRRVTGTHPDAGEINTFLSDLERAAFSVISRLERAGTLITAQRIKDEIQEEREEVKSAPEDFLAFAREKVKGYKRRGQIGTFRSYRTTCRKFTAFIEETYGRDEVPFGALEAELFREFRTYCYEERGNSTNTVGRELGIMRTLVRHAMKEGKLSAYPFEHITIDSEPSQKELLTPEEVERIADLEIDEESPAAEARRWFLFAYYAGGMRFSDVATLQWQHIREGRSGRPRVCYKMKKTADTVGVPLIPEAKEILCRYEEGDGEDWVFPISEGIDPGNEEALHRRKCQRNSAANRHLKELAGQAGIEKRVTFHLSRNAAAWKLYQNVGDIYKVSKFLGHSNVEQTQDYIDGFVDESRDEDFIAAMT”, the protein production result is on record as “failed”.

Take “MWDLNIKESTMTRNGKAKRPLPLAASVAMYAIAIILAAATAIGNVYANKYSDLISVYFNQPTSKVVSASNETTEHFTSDYASDDEREQALADMGTTILREGVTLLKNENGTLPLEATSKISVFGQDSVDSVYGGGGAGSIDTSKAQSLMDAFEQAGFDVNPTLTEFYTTGAGKDYRKTSTDAYGKGTFAVNEVPASAYTDDVKKSFASYNDAAIVVIGRSGSESQDLPTDKLASGYTYLQLDDDERAMLKMASDNFDKVVVLLNTQNPMELADLEDDSIDAVMWIGSLGQTGAGGVAEALNGTVNPSGHLPDTYAYDLKSAPSSANFGSYAIVNGTDRFTSSYMAYAEGIYVGYRYYETRYEDVVLGNEARSNYDYTKQVAYPFGYGLSYTDFTWSDYSMKKADGGFDISVKVTNTGKTAGKDVVQLYMQSPYTDYDKANGIEKASVELVGYAKTDTLKAGASETVTVHVDQESMKTYDSTGEGTYIMDAGDYYLAVGTDAHNALNNILAAKGKTTADGMTENGNAALAAKHTVHSQDNTTYAKSAATDEKISNQFDDVDLTTYDNSFTYLSRSDWTGSWPATYADGKWTASQKFLDALNIDTAQSEPEQKPTTDTDNPSYGKLNASMLMDADYADESWSALIGQMSVKELDQLVRIGGYATKSVSSTQLPATTDKDGPAGISSTLVGGESGMGYPSEIVIAATWNSDLAESFGKAIGEDSLALKVAVWYGPACNIHRNPYGGRAFEYFSEDSYLSGAMCAKVVAGAGSKGVVSTVKHFALNDQETNRMGGAIFANEQTIRQLYLRPFEMSVRDGGATAMMASMNRIGSRWTGGHKGLMTNTLRGEWGFNGFVVTDQASYSVFAYEDLREGLEAGTDLWLNTDAGLWKLPDDDMTDGVIANMQRAAHNISYAISRSNAMNGLSANSKIVKVTPLWRWGVYALDGVVTVGAVALIAIATLQILRRRKRDATVAAETGEPAANDGE”: the protein production result is “failed”.

For the sequence “MWDVIVVGGGPSGLSAALFLARAGLKVLVLDGGRSKVKGVSRVPNYPGLLDEPSGEELLRRLEAHARRYGAEVRPGVVKGVRDMGGVFEVETEEGVEKAERLLLCTHKDPTLPSLLGLTRRGAYIDTDEGGRTSYPRVYAAGVARGKVPGHAIISAGDGAYVAVHLVSDLRGEPYKDHAL”, the protein production result is given as “not failed”.

For “MWEIYDAMINGIPEDFLVDELVCGTTHSVIRSGNGVGLGPNRPFETRMPMLTQNLLGLPLRVAAGCVKSWNYVEASIGLAAINAYYNNPQVAREHGVIFSDAKRVEDRMNDPFIMSQNEVKGKKVGVVGHFPHLESLLEPICDLSILEWSPEEGDYPLPASEFILPECDYVYITCASVVDKTLPRLLELSRNARRITLVGPGTPLAPVLFEHGLQELSGFMVKDNARAFRIVAGAEKVKIYSAGQKVTIKK”, the protein production result is “not failed”.

Regarding “MWIAVSAVNLALAVILGAFGAHGLKAYASPAKLAWWQTATDYFFYHALGLLVLGVISKTYTVLPIKSSFILIQIGILFFCGSLYLMALGLPRGFGAITPIGGAFMILGWIVLAWNAVKYAK”, the protein production result is reported as “failed”.

Consider “MWIGSVFMRKSFVISLLSAGILLAGCQAVNTTSGGAVGVERQQYMFSMLSTDEVNQMYAQSYQQTLGEASSKGVLDKSSADAKRVQAIANRLIAQAPKFRPDAAQWDWQVNVIKSDELNANCGPGGKIIVYTGLIDQLKLTDAEIAAVVGHEIAHALREHSREAMSKAYGVEMARQGAGAIFGLGQSSMAMADTVVNYAMTLPNSRANENEADLIGLELSARAGYDPNAAITLWNKMSKASEGAPPEFMSTHPASASRIASLQAAIPKVMPLYQAAAKP”, for which the protein production entry is “failed”.

Regarding “MWKHVKQVDPEIYEVLVNELKRQEYGLELIASENFASLAVIETMGSMLTNKYAEGYPKKRYYGGCEWVDRAEERAIERAKRLFGAKFANVQPHSGSQANMAVYLALAQPGDTIMGMSLSHGGHLTHGAPVNFSGKIFKVVPYGVNLETETIDYDEVRRLALEHKPKIIVAGGSAYARIIDFKRFREIADEVGAYLMVDMAHFAGLVAAGIHPNPLEYAHVVTSTTHKTLRGPRGGLILTNDPEIAKAVDKTIFPGIQGGPLMHVIAAKAVCFKEAMTEEFKEYQKQVVKNAKKMAEEFQKRGYRIVSGGTDTHLFLVDLTPKDITGKAAEKALESCGITVNKNTIPNEKRSPFVASGIRIGTPAVTTRGMKEEEMEEIAEMIDLVLSNVIDENGTVKPEVREEVSKKVRELCERFPLYRDKIEGVEI”, the protein production entry is reported as “not failed”.

With “MWKRMTAKAEGLYIADTKSFVTKQMDKLDFDYGGIPGDLHFGLTKKAGAREPMFSRGTEIFNRRQISIVSIEECNEIALKMGVPRILPEWLGANVAVSGMPDLTSLKEGSRIIFPSGAALLCEGENDPCIQPGEVIQSYYPDQPKLASAFVRHALGIRGIVCIVERPGAVYTGDEIEVHSYQRKVKRKAERV”, the protein production entry is listed as “not failed”.

On to “MWLSEFEIVLRDRVIPNGAVRIEDGRIAEIRDRPVAHADIDGGGRLLLPGFIDMHGDMVEREVEPRIGVHVPMRIGIAELDKKLASCGITTAYAALSFIGASVTSGVLRSEDHTTEIIDTIAGMKDHLLVDHRTHARFEVTFTPAIPTLQKLMDAGRLDLISLMDHTPGQGQYRDVELYIARIAKERGMSVAAASEVVGKRMAGREGQGNVLNALQDLSARARAAGIVLASHDDDTLEKVELVHGLGAALSEFPVTLEAAQEARRLGMHTAMGAPNALRGESYSGNLSARQAYQAGLLDMLASDYHPASILPAVLGLAELRGDGLAAAAALTSANPANALGLTDRGAVEPGLLADFVVADRYPVPRVRATFRAGRMIYGDGTLALAGKAERLGPVAAERLPAA”, for which the protein production result was “failed”.
